Biological target: T1, TGF-β1 (Mus musculus, UniProt P04202)
T1 construct: an in vivo system wherein TGF-β1 acts as supposed antagonist of the cytokines induced in this model; from tissue; host or cells: living BALB/c mice (Harlan), endogenous TGF-β1; read-out in serum
Test: In vivo activity of recombinant adenovirus for mouse IL-12: IFN-γ and NO levels in serum
Design: species or system BALB/c mice
Source text: This example studies the effect of peptide p144 in an in vivo system wherein TGF-β1 acts as supposed antagonist of the cytokines induced in this model. The production of mouse IL-12 by the expression of a transgen included in the recombinant adenovirus, induces an inflammatory state through the induction of a cascade of factors, including IFN-γ and nitric oxide. TGF-β1 has been described as an inhibitor of the production and biological action of IL-12, IFN-γ and NO (Pardoux C. et al., 1999; Schini V. B. et al., 1992). […]
Blood samples were extracted from both groups on days 6 and 9 after immunization for the subsequent quantification of IFN-γ and NO levels in serum.
The quantity of IFN-γ was measured by a commercial ELISA (Mouse IFN-γ Duoset ELISA Development System, Genzyme, Cambridge and OPTEIA Mouse IFN-γ Ser, Pharmingen, San Diego, USA) in accordance with the manufacturer's instructions. The results were expressed as pg/ml of IFN-γ and using a standard curve of known quantities of IFN-γ. […]
NO2* emission is in the red and infrared region of the light spectrum and is detected by a red-sensitive photomultiplier tube. This signal is quantified and the data obtained are collected and processed by a computer.

T1 sequence (P04202 279-390 limits assumed): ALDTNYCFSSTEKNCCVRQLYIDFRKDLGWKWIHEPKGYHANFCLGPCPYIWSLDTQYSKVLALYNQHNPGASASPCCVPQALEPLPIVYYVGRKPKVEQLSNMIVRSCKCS

In the case of “p144: peptide inhibiting TGF-β1 whose amino acid sequence corresponds to SEQ ID NO: 1 (TSLDASIIWAMMQN; Synthetic Construct from human TGB-Beta1 type III receptor.Domain730-743)”, the “serum levels of IFN-γ” value (RAd IL-12 1×10^8 pfu i.p. plus p144 daily 100 μg for 5 days, versus RAd IL-12 alone) is reported as “increases” and the NO serum levels (day 6, RAd IL-12 1×10^8 pfu i.p. plus p144, versus RAd IL-12 alone) is reported as “greater level”.

From patent US20090263410A1, “USE OF TGF-B1 INHIBITOR PEPTIDES IN THE PREPARATION OF AN IMMUNE RESPONSE MODULATING AGENT” (Proyecto De Biomedicina Cima, S.L., priority 2005, published 2009)
